The target of experiment [1] is IL34 (interleukin 34 ligand) (UniProt Q6ZMJ4). The experiment is described as follows: cell-based or functional assay.
In experiment [2] the target is CSF1 (colony stimulating factor 1 ligand) (UniProt P09603). The experiment is described as follows: cell-based or functional assay.
Sequence of UniProt P09603 (P09603 33-190 limits assumed): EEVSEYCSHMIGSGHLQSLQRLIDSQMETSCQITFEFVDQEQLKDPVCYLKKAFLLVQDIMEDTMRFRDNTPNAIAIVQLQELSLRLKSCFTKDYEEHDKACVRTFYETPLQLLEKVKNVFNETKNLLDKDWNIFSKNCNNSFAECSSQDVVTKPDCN

Sequence of UniProt Q6ZMJ4 (Q6ZMJ4 21-242 limits assumed): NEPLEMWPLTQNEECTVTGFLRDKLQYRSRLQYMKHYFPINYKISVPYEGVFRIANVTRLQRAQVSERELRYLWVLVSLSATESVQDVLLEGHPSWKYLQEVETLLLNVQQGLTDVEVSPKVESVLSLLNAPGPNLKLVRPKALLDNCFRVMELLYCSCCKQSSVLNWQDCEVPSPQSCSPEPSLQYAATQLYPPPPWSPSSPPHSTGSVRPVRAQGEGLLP

In turn, hCSF1R-ECD.506-Fc (Fc fusion) came in with an IC50 for inhibition of IL34-induced monocyte proliferation in experiment [1] of 0.27 nM. In experiment [2], this substance registered an IC50 for inhibition of CSF1-induced monocyte proliferation of 1.5 nM.

The values are drawn from patent US20100136006A1.
